From patent US20030013152A1 (University of Texas, published 2003)

How the values were obtained:
[1] = target: T1, recombinant rat TFIIAα/β (p55) subunit (rat, UniProt O08949 1-377); assay: electrophoretic mobility shift assay; both subunits stand in one complex with TBP and DNA
T1 construct: also called rat p55
T1 sequence (looked up): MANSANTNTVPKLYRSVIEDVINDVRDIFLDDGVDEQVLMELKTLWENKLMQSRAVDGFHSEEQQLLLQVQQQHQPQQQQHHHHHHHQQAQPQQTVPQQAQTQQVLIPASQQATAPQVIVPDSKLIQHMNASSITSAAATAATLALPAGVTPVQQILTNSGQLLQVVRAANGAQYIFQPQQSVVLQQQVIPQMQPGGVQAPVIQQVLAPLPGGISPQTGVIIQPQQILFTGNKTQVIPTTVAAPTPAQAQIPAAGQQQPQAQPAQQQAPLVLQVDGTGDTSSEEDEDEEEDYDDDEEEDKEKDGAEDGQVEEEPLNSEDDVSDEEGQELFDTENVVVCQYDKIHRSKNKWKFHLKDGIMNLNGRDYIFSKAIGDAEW
Protocol: (§1) Mobility shift assays were performed using 10 fmol of a [γ-³²P] ATP kinase-labeled TATA-containing an oligonucleotide that spans nucleotides −40 to −16 of the Adenovirus Major Late (AdML) promoter. Binding reactions (25 μl final volume) were performed in 10 mM HEPES (pH 7.9), 2% (wt/vol) PEG-8000, 60 mM KCl, 5 mM DTT, 0.2 mM EDTA, 5 mM ammonium sulfate, 4 mM MgC1₂, and 8% glycerol. Recombinant rat p55 (30 ng; 29 nM), rat p12 (1.1 ug; 3.5 uM), human ALF (180 ng; 137 nM) and human TBP (125 ng; 133 nM) were added to reactions as indicated. Reactions were incubated for 30 minutes at room temperature, and complexes are separated on native 5% polyacrylamide gels containing 0.5×TBE and 5% glycerol. Competition experiments contain either cold AdML TATA or SP1 oligonucleotides, and antibody supershift reactions contain 2-4 μl of rabbit polyclonal antiserum raised against the 55 kD hTFIIAα/β polypeptide (3).
(§2) The activity of polypeptides was tested in electrophoretic mobility shift assays under conditions in which TATA-Binding Protein (TBP) alone is unable to bind DNA (FIG. 12B, lane 1). The presence of TFIIAα/β (p55) and TFIIAγ (p12) stabilized the TBP-DNA interaction via TFIIAα/β/γ-TBP-DNA complex formation (lane 2). Likewise, the recombinant ALF (p69) polypeptide, in conjunction with the TFIIAγ (p12) subunit, was able to form ALF/γ-TBP-DNA complexes (lane 5). […]

[2] = target: T2, recombinant histidine-tagged human ALF (TFIIAα/β-like factor) polypeptide, residues Val7 to Trp478 (human, UniProt Q9UNN4 7-478); assay: as above
T2 construct: 479 amino acid polypeptide expressed in E. coli from pRSET-ALF, purified under denaturing conditions on Ni-NTA and renatured; migrates at 69 kD; also called p69; p69 (ALF)
T2 sequence: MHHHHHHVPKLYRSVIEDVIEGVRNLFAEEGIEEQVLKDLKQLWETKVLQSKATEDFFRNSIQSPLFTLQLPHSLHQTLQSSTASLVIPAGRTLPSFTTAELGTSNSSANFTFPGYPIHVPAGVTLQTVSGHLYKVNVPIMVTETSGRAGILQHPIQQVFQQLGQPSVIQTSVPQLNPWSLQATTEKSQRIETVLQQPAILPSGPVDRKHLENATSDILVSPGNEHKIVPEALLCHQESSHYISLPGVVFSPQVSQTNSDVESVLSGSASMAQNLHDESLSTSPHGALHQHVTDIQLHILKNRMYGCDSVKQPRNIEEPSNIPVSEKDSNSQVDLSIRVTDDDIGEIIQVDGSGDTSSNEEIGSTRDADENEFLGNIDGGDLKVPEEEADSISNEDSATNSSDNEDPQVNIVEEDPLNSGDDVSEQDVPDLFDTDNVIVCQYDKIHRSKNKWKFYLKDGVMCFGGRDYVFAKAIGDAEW
Protocol: as §1, §2

[3] = target: T3, ALF/γ: recombinant human ALF (p69) together with recombinant rat TFIIAγ (p12) (human; rat, UniProt O08950 1-109); assay: electrophoretic mobility shift assay on labelled AdML TATA oligonucleotide, under conditions in which TBP alone does not bind DNA
T3 construct: also called ALF (p69) and TFIIAγ (p12)
T3 sequence 1: T2 sequence
T3 sequence 2: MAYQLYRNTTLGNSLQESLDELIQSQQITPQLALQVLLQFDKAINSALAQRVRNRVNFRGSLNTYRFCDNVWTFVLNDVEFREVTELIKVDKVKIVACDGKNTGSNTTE
Protocol: as §1, §2

[4] = target: T4, TFIIAα/β/γ: recombinant rat TFIIAα/β (p55) together with recombinant rat TFIIAγ (p12) (rat, UniProt O08949 1-377; O08950 1-109); assay: as above
T4 construct: also called TFIIAα/β (p55) and TFIIAγ (p12)
T4 sequence (looked up) 1: T1 sequence (looked up)
T4 sequence (looked up) 2: T3 sequence 2
Protocol: as §1, §2

B1: recombinant rat TFIIAγ (p12) subunit (other, UniProt O08950 1-109, looked up)
chain: T3 sequence 2
notes: also called rat p12; p12 (TFIIAγ)
- binding result [1]: binds
- binding result [2]: binds

B2: recombinant histidine-tagged human TATA binding protein (TBP) (other, UniProt P20226 1-339, looked up)
chain: MDQNNSLPPYAQGLASPQGAMTPGIPIFSPMMPYGTGLTPQPIQNTNSLSILEEQQRQQQQQQQQQQQQQQQQQQQQQQQQQQQQQQQQQQQQQQAVAAAAVQQSTSQQATQGTSGQAPQLFHSQTLTTAPLPGTTPLYPSPMTPMTPITPATPASESSGIVPQLQNIVSTVNLGCKLDLKTIALRARNAEYNPKRFAAVIMRIREPRTTALIFSSGKMVCTGAKSEEQSRLAARKYARVVQKLGFPAKFLDFKIQNMVGSCDVKFPIRLEGLVLTHQQFSSYEPELFPGLIYRMIKPRIVLLIFVSGKVVLTGAKVRAEIYEAFENIYPILKGFRKTT
notes: In the mobility shift assay TBP stood together with a labelled AdML TATA oligonucleotide (-40 to -16); also called human TBP; not shown: histidine tag
- binding result [3]: binds
- binding result [4]: binds
